Three substances from patent US7074589 can be followed below.

One data set addresses T1, SRp20 (UniProt P84104).
T1 sequence: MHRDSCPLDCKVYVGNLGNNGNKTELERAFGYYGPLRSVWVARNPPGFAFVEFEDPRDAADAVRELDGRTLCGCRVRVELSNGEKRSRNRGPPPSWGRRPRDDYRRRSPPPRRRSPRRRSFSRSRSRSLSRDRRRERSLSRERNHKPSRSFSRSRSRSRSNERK

The target in the next data set is T2, SRp40 (UniProt O35326).
T2 sequence: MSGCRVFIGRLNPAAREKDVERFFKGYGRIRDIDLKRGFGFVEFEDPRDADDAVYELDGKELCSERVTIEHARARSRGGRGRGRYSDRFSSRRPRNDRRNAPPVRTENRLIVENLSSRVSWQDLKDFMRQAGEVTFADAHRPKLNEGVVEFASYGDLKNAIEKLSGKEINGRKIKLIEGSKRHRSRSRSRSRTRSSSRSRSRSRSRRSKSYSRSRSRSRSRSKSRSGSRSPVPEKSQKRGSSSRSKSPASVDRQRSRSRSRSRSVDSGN

The target in a further data set is T3, SRp55 (UniProt Q3TWW8).
T3 sequence: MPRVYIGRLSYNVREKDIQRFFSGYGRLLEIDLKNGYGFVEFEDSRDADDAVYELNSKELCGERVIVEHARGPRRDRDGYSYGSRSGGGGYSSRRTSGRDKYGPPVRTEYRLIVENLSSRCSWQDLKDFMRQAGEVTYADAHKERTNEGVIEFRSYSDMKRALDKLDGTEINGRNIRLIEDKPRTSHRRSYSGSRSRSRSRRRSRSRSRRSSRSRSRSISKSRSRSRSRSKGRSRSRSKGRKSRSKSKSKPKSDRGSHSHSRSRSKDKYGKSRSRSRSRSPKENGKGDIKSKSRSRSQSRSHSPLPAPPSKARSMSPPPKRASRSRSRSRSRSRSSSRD

The next data set deals with SRp30a (UniProt Q6PDM2).
A further data set has as its target SRp30b (UniProt Q62093).

Sequence of SRp30b (Q62093 2-221): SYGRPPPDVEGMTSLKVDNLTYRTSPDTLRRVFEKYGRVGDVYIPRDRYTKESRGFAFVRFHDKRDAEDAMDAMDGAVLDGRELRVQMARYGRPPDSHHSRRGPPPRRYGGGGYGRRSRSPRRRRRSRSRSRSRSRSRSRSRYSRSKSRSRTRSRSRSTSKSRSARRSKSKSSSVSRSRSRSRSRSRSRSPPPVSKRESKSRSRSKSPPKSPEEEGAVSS
Sequence of SRp30a (Q6PDM2 2-248): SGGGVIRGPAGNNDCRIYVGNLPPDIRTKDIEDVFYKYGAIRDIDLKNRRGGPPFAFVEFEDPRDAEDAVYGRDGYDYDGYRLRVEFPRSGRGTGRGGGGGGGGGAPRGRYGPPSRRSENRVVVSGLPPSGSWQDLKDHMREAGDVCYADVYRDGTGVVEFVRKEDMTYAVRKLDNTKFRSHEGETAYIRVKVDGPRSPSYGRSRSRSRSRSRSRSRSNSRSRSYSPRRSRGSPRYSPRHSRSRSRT

In the case of GST-mCLK4 fusion protein, the “phosphorylation of SR proteins, in vitro kinase assay with gamma-32P-ATP” value (“phosphorylation of SR proteins” for short) with SRp20 is “All mCLK kinases were able to phosphorylate SRp2O, SRp3Oa and to a lesser extent SRp4O and SRp55”; with SRp40, “All mCLK kinases were able to phosphorylate SRp2O, SRp3Oa and to a lesser extent SRp4O and SRp55”; in the data set with SRp55, “All mCLK kinases were able to phosphorylate SRp2O, SRp3Oa and to a lesser extent SRp4O and SRp55”; with SRp30a, “All mCLK kinases were able to phosphorylate SRp2O, SRp3Oa and to a lesser extent SRp4O and SRp55”; in the data set with SRp30b, “mCLK1 and mCLK4 phosphorylated SRp3Oa (upper band) more strongly than SRp3Ob”.
Take GST-mCLK3 fusion protein: the “phosphorylation of SR proteins” value was “All mCLK kinases were able to phosphorylate SRp2O, SRp3Oa and to a lesser extent SRp4O and SRp55” with SRp20; “All mCLK kinases were able to phosphorylate SRp2O, SRp3Oa and to a lesser extent SRp4O and SRp55” with SRp40; “All mCLK kinases were able to phosphorylate SRp2O, SRp3Oa and to a lesser extent SRp4O and SRp55” with SRp55; “All mCLK kinases were able to phosphorylate SRp2O, SRp3Oa and to a lesser extent SRp4O and SRp55” in the data set with SRp30a; “mCLK2 and mCLK3 phosphorylated both with almost equal efficiency” with SRp30b.
For GST-mCLK2 fusion protein, the “phosphorylation of SR proteins” value in the data set with SRp20 was “All mCLK kinases were able to phosphorylate SRp2O, SRp3Oa and to a lesser extent SRp4O and SRp55”; with SRp40, “All mCLK kinases were able to phosphorylate SRp2O, SRp3Oa and to a lesser extent SRp4O and SRp55”; in the data set with SRp55, “All mCLK kinases were able to phosphorylate SRp2O, SRp3Oa and to a lesser extent SRp4O and SRp55”; with SRp30a it was “All mCLK kinases were able to phosphorylate SRp2O, SRp3Oa and to a lesser extent SRp4O and SRp55”; with SRp30b it was “mCLK2 and mCLK3 phosphorylated both with almost equal efficiency”.
